This note sets out measurements from the supplement of paper PMC5998384.

Data set [1] relates to HeLa Kyoto. The experiment in a line: thermal stability score vs G1/S (z-score of summed log2 fold changes over temperatures); higher = more thermally stable than in G1/S.
Data set [2] deals with HeLa Kyoto. The experiment in a line: solubility in G1/S (NP-40 vs SDS abundance) (log2 ratio); higher = more soluble. Particulars: cell cycle stage: G1/S.
Data set [3] concerns HeLa Kyoto. Nature of the data set: melting temperature (median over replicates), in situ; higher = more thermally stable.
For data set [4], the system named is HeLa Kyoto. Nature of the data set: solubility change mitosis vs G1/S (difference of NP-40 vs SDS log2 ratios) (log2 ratio difference); higher = more soluble in mitosis.
[5] abbreviates: cell cycle stage: early G1 (4.5 h after nocodazole release).
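Wherever melting temperature (median over replicates), in situ is given: HeLa Kyoto cells synchronized by double thymidine or nocodazole block, proteins quantified by TMT10plex mass spectrometry, three independent biological replicates.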
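Wherever solubility change mitosis vs G1/S (difference of NP-40 vs SDS log2 ratios) is given: synchronized HeLa Kyoto cells (double thymidine block for G1/S, nocodazole release for mitosis), protein amounts in NP-40 versus SDS lysates quantified by mass spectrometry, three biological replicates.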
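Wherever solubility in G1/S (NP-40 vs SDS abundance) is given: HeLa Kyoto cells arrested at G1/S by double thymidine block, proteins quantified by TMT10plex mass spectrometry in mild NP-40 versus SDS extracts, three biological replicates.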
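Wherever thermal stability score vs G1/S (z-score of summed log2 fold changes over temperatures) is given: synchronized HeLa Kyoto cells, proteins quantified by TMT10plex mass spectrometry, three biological replicates, mitosis taken 0.5 h after nocodazole release, G1/S directly after double thymidine block.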

Turning to “MGSRVSREDFEWVYTDQPHADRRREILAKYPEIKSLMKPDPNLIWIIIMMVLTQLGAFYIVKDLDWKWVIFGAYAFGSCINHSMTLAIHEIAHNAAFGNCKAMWNRWFGMFANLPIGIPYSISFKRYHMDHHRYLGADGVDVDIPTDFEGWFFCTAFRKFIWVILQPLFYAFRPLFINPKPITYLEVINTVAQVTFDILIYYFLGIKSLVYMLAASLLGLGLHPISGHFIAEHYMFLKGHETYSYYGPLNLLTFNVGYHNEHHDFPNIPGKSLPLVRKIAAEYYDNLPHYNSWIKVLYDFVMDDTISPYSRMKRHQKGEMVLE [DEGS1]”, the thermal stability score in the data set on HeLa Kyoto [1] (setting [5]) is -0.898; in the data set on HeLa Kyoto [1] (cell cycle stage: mitosis), -1.88. Besides, the “solubility in G1/S (log2)” value with HeLa Kyoto [2] is -0.186. The values for the melting temperature with HeLa Kyoto [3] (cell cycle stage: G1/S) and in the data set with HeLa Kyoto [3] (cell cycle stage: mitosis) were 55 °C and 55.2 °C, respectively. Further, in the data set with HeLa Kyoto [4], the “solubility change mitosis (log2)” value is -0.264.

As to “MGTPGEGLGRCSHALIRGVPESLASGEGAGAGLPALDLAKAQREHGVLGGKLRQRLGLQLLELPPEESLPLGPLLGDTAVIQGDTALITRPWSPARRPEVDGVRKALQDLGLRIVEIGDENATLDGTDVLFTGREFFVGLSKWTNHRGAEIVADTFRDFAVSTVPVSGPSHLRGLCGMGGPRTVVAGSSDAAQKAVRAMAVLTDHPYASLTLPDDAAADCLFLRPGLPGVPPFLLHRGGGDLPNSQEALQKLSDVTLVPVSCSELEKAGAGLSSLCLVLSTRPHS [DDAH2]”, the figures for the thermal stability score with HeLa Kyoto [1] (setting [5]) and in the data set on HeLa Kyoto [1] (cell cycle stage: mitosis) were 0.156 and 0.00237, respectively. Moreover, in the data set on HeLa Kyoto [2], the “solubility in G1/S (log2)” value is 0.479. The melting temperature in the data set with HeLa Kyoto [3] (cell cycle stage: G1/S) was found to be 55.2 °C; in the data set with HeLa Kyoto [3] (cell cycle stage: mitosis) it was 54 °C. Besides, the “solubility change mitosis (log2)” value in the data set on HeLa Kyoto [4] was found to be 0.0772.

Take “MGTPQKDVIIKSDAPDTLLLEKHADYIASYGSKKDDYEYCMSEYLRMSGIYWGLTVMDLMGQLHRMNREEILAFIKSCQHECGGISASIGHDPHLLYTLSAVQILTLYDSINVIDVNKVVEYVKGLQKEDGSFAGDIWGEIDTRFSFCAVATLALLGKLDAINVEKAIEFVLSCMNFDGGFGCRPGSESHAGQIYCCTGFLAITSQLHQVNSDLLGWWLCERQLPSGGLNGRPEKLPDVCYSWWVLASLKIIGRLHWIDREKLRNFILACQDEETGGFADRPGDMVDPFHTLFGIAGLSLLGEEQIKPVNPVFCMPEEVLQRVNVQPELVS [RABGGTB]”: the results for the thermal stability score with HeLa Kyoto [1] (setting [5]) and with HeLa Kyoto [1] (cell cycle stage: mitosis) were -0.232 and 1.64, respectively. For the same sequence, in the data set on HeLa Kyoto [2], the “solubility in G1/S (log2)” value is 0.122. The melting temperature in the data set on HeLa Kyoto [3] (cell cycle stage: G1/S) came to 49.8 °C; with HeLa Kyoto [3] (cell cycle stage: mitosis) it was 50.3 °C. For the same sequence, the “solubility change mitosis (log2)” value in the data set on HeLa Kyoto [4] was -0.347.

Turning to “MGTPRAQHPPPPQLLFLILLSCPWIQGLPLKEEEILPEPGSETPTVASEALAELLHGALLRRGPEMGYLPGSDRDPTLATPPAGQTLAVPSLPRATEPGTGPLTTAVTPNGVRGAGPTAPELLTPPPGTTAPPPPSPASPGPPLGPEGGEEETTTTIITTTTVTTTVTSPVLCNNNISEGEGYVESPDLGSPVSRTLGLLDCTYSIHVYPGYGIEIQVQTLNLSQEEELLVLAGGGSPGLAPRLLANSSMLGEGQVLRSPTNRLLLHFQSPRVPRGGGFRIHYQAYLLSCGFPPRPAHGDVSVTDLHPGGTATFHCDSGYQLQGEETLICLNGTRPSWNGETPSCMASCGGTIHNATLGRIVSPEPGGAVGPNLTCRWVIEAAEGRRLHLHFERVSLDEDNDRLMVRSGGSPLSPVIYDSDMDDVPERGLISDAQSLYVELLSETPANPLLLSLRFEAFEEDRCFAPFLAHGNVTTTDPEYRPGALATFSCLPGYALEPPGPPNAIECVDPTEPHWNDTEPACKAMCGGELSEPAGVVLSPDWPQSYSPGQDCVWGVHVQEEKRILLQVEILNVREGDMLTLFDGDGPSARVLAQLRGPQPRRRLLSSGPDLTLQFQAPPGPPNPGLGQGFVLHFKEVPRNDTCPELPPPEWGWRTASHGDLIRGTVLTYQCEPGYELLGSDILTCQWDLSWSAAPPACQKIMTCADPGEIANGHRTASDAGFPVGSHVQYRCLPGYSLEGAAMLTCYSRDTGTPKWSDRVPKCALKYEPCLNPGVPENGYQTLYKHHYQAGESLRFFCYEGFELIGEVTITCVPGHPSQWTSQPPLCKVTQTTDPSRQLEGGNLALAILLPLGLVIVLGSGVYIYYTKLQGKSLFGFSGSHSYSPITVESDFSNPLYEAGDTREYEVSI [SEZ6L2]”, the thermal stability score in the data set on HeLa Kyoto [1] (setting [5]) is -0.928; with HeLa Kyoto [1] (cell cycle stage: mitosis) it was -1.52. For the same sequence, in the data set with HeLa Kyoto [2], the “solubility in G1/S (log2)” value is -0.174. Moreover, the melting temperature in the data set with HeLa Kyoto [3] (cell cycle stage: G1/S) was found to be 53.7 °C; in the data set with HeLa Kyoto [3] (cell cycle stage: mitosis) it was 54.8 °C. The “solubility change mitosis (log2)” value with HeLa Kyoto [4] is 0.0248.

As to “MGTQKVTPALIFAITVATIGSFQFGYNTGVINAPEKIIKEFINKTLTDKGNAPPSEVLLTSLWSLSVAIFSVGGMIGSFSVGLFVNRFGRRNSMLIVNLLAVTGGCFMGLCKVAKSVEMLILGRLVIGLFCGLCTGFVPMYIGEISPTALRGAFGTLNQLGIVVGILVAQIFGLEFILGSEELWPLLLGFTILPAILQSAALPFCPESPRFLLINRKEEENAKQILQRLWGTQDVSQDIQEMKDESARMSQEKQVTVLELFRVSSYRQPIIISIVLQLSQQLSGINAVFYYSTGIFKDAGVQEPIYATIGAGVVNTIFTVVSLFLVERAGRRTLHMIGLGGMAFCSTLMTVSLLLKDNYNGMSFVCIGAILVFVAFFEIGPGPIPWFIVAELFSQGPRPAAMAVAGCSNWTSNFLVGLLFPSAAHYLGAYVFIIFTGFLITFLAFTFFKVPETRGRTFEDITRAFEGQAHGADRSGKDGVMEMNSIEPAKETTTNV [SLC2A3]”, the figures for the thermal stability score with HeLa Kyoto [1] (setting [5]) and with HeLa Kyoto [1] (cell cycle stage: mitosis) were -2.61 and -5.18, respectively. Also, the “solubility in G1/S (log2)” value in the data set with HeLa Kyoto [2] is -0.0807. Also, the melting temperature with HeLa Kyoto [3] (cell cycle stage: G1/S) was 62.7 °C; in the data set on HeLa Kyoto [3] (cell cycle stage: mitosis), 59.1 °C. Further, in the data set on HeLa Kyoto [4], the “solubility change mitosis (log2)” value is -0.0464.

For “MGTVHARSLEPLPSSGPDFGGLGEEAEFVEVEPEAKQEILENKDVVVQHVHFDGLGRTKDDIIICEIGDVFKAKNLIEVMRKSHEAREKLLRLGIFRQVDVLIDTCQGDDALPNGLDVTFEVTELRRLTGSYNTMVGNNEGSMVLGLKLPNLLGRAEKVTFQFSYGTKETSYGLSFFKPRPGNFERNFSVNLYKVTGQFPWSSLRETDRGMSAEYSFPIWKTSHTVKWEGVWRELGCLSRTASFAVRKESGHSLKSSLSHAMVIDSRNSSILPRRGALLKVNQELAGYTGGDVSFIKEDFELQLNKQLIFDSVFSASFWGGMLVPIGDKPSSIADRFYLGGPTSIRGFSMHSIGPQSEGDYLGGEAYWAGGLHLYTPLPFRPGQGGFGELFRTHFFLNAGNLCNLNYGEGPKAHIRKLAECIRWSYGAGIVLRLGNIARLELNYCVPMGVQTGDRICDGVQFGAGIRFL [SAMM50]”, the results for the thermal stability score with HeLa Kyoto [1] (setting [5]) and in the data set on HeLa Kyoto [1] (cell cycle stage: mitosis) were -2.61 and -4.33, respectively. In the data set with HeLa Kyoto [2], the “solubility in G1/S (log2)” value was -0.348. Also, the values for the melting temperature in the data set on HeLa Kyoto [3] (cell cycle stage: G1/S) and in the data set on HeLa Kyoto [3] (cell cycle stage: mitosis) were 56.1 °C and 54.6 °C, respectively. Also, the “solubility change mitosis (log2)” value with HeLa Kyoto [4] is -0.0834.
